In patent US20120288536 one finds Kd data, which are given here for one sequence.

For orientation: Kd means a measure of binding affinity in units of concentration. Lower therefore signals tighter binding.

This data set deals with pSTAT3 (tyrosine-phosphorylated STAT3) (UniProt P40763). The data set can be described thus: SPR. The following applies: PS x3 at 5' end of sense and 3' end of antisense; strands linked at one end by C-18 (18-atom hexa-ethyleneglycol) spacers; Langmuir 1:1, 4 C, 20 mM HEPES pH 7.0, 200 mM NaCl, 10 mM MgCl2.
Sequence of pSTAT3 (tyrosine-phosphorylated STAT3) (P40763 whole entry): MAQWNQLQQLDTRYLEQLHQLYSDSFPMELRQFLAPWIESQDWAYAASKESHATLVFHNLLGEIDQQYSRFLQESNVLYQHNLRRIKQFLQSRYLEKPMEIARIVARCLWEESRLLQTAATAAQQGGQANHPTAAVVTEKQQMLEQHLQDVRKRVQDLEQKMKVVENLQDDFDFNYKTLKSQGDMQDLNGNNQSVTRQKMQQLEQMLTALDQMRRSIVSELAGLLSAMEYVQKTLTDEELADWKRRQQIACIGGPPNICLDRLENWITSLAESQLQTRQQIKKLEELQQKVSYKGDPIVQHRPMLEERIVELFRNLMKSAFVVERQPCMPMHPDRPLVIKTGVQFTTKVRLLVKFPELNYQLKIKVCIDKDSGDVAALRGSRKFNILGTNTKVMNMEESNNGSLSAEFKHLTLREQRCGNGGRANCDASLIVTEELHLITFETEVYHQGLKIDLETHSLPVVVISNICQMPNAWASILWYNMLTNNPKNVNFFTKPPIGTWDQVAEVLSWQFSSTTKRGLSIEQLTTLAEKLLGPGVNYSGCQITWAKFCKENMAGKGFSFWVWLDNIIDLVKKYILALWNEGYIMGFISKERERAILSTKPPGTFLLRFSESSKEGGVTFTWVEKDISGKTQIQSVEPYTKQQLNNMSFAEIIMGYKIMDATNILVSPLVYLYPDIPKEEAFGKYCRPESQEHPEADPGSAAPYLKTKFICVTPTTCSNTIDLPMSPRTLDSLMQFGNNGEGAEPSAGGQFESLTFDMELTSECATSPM

As to CATTTCCCGTAAATC (double strand) [DS18], the Kd stood at 142 nM.
